Reference: the RNAGym collection of RNA variant scans (doi:10.1073/pnas.2313332121)

B1: TPR t1 (parent)
chain: GACCAAUCUGCCCUCAGAGCUCGAGAACAUCUUCGGAUGCAGAGGAGGCAGGCUUCGGUGGCGCGAUAGCGCCAACGUCCUCAACCUCCAAUGCAUCCCACCACAUGAUGAUGCCUGAAGAGCCUUGGUUUUUUG

Variants of: B1
Assay: polymerase ribozyme fitness, log enrichment relative to wild type (log ratio); higher = more active; in vitro selection for triplet polymerase activity
Procedure, shortened: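 Mutant libraries of each subunit of a heterodimeric triplet polymerase ribozyme were built by PCR and transcribed. Each library went through one round of in vitro selection in triplicate: annealing with biotinylated primer, partner subunit and triplets, frozen incubation at −7 °C, gel excision of extended constructs, streptavidin-bead capture and RT-PCR. Input and output libraries were Illumina-sequenced; only genotypes with ≥10 input reads and ≥1 read per output were kept. Fitness is log2(genotype enrichment/wild-type enrichment), using inverse-variance-weighted replicate averages.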

| Variant | polymerase ribozyme fitness (log ratio) |
| --- | --- |
| U54G A108U | -5.9 |
| U55G C56A C79G C124U | -0.518 |
| U54G U87C | -0.0304 |
| U54G U87A | -0.0841 |
| U55C G71A A84U C102A C104U | -3.41 |
| U54A A95C | -0.767 |
| U54G U87C C115G | -1.72 |
| U55G C99U | -2.45 |
| C53G U78C C114U U132A | -2.19 |
| U55A G71C | -1.29 |
| U54A U112A G117C | -3.84 |
| C53U A84U U126C | -1.72 |
| C53U C62U U106C G117U | -4.61 |
| U54A U96A G113C C123U U126A | -4.27 |
| C53U U55G C104U | 0.237 |
| U55A C73U | 0.172 |
| U54C U133A | -0.0319 |
| U54C G61C A75U | 0.0964 |
| C53U C114U | -1.76 |
| U54G A105G U112A C123G C124A U132C | -2.09 |
| U54A C70G C115U | -5.02 |
| U54G G113U | -3.26 |
| U54C G57C C72G U112C | 0.604 |
| U55A G61U C85A C94A | -0.999 |

| Variant | polymerase ribozyme fitness (log ratio) |
| --- | --- |
| U55G C62A | -0.186 |
| U55G C62G | -0.626 |
| U54G C97U | -0.558 |
| C53G U92C | -1.3 |
| U54A C82U | -0.0762 |
| C53U U131G | -0.948 |
| U54G U87C U92G | -2.64 |
| C53U C72A U81G G120A U129A | -1.13 |
| U54A U81C A90G C123U | 0.715 |
| C53U C80U U81C | -4.05 |
| U55A G63C C98U G113U | -4.52 |
| C53U G63A U96A | -2.3 |
| U54C C56A C89U | -0.439 |
| U55G A103C | -4.87 |
| U55C G61C C80A | -3.32 |
| C53U U55G G63U U81C G93U U116C G135C | -5.21 |
| U54G U55G G60C C85U | -6.29 |
| U54A U55A A74G | -0.235 |
| C53U C72U A111U | -3.11 |
| U55A G69C U87G G93U | -1.37 |
| C53U C72U U87G G117C | -3.81 |
| U55A C85G C86G U112G G128A | -2.76 |
| U54A U87G C123A | 0.724 |
| U54A C62A | -0.751 |

| Variant | polymerase ribozyme fitness (log ratio) |
| --- | --- |
| U54A C62U | -1.02 |
| C53U C73G C85U C102A | -5.04 |
| U54A G71U | -0.0584 |
| U54A G71U U87G C123A | -0.353 |
| C53G U131G | -1.07 |
| C53U G63U | -1.11 |
| U55G C72U U87C G107U | -4.49 |
| U55G C104A | -1.59 |
| U54A G71C A83C G120U | -0.105 |
| U55G C73A | 0.256 |
| U54A C72A C73U A91C C115U U129A | -4.31 |
| U55G C70U C89A C104U | -2.38 |
| U55G C64U A90C U92G C101A | -3.82 |
| U54A C62A G63A C88A | -3.95 |
| C53U G71U C89U C115U | -3.54 |
| U55A U112A | 1.77 |
| U54G C56G A83C G120U | -1.88 |
| C53U C72G C79A | -1.72 |
| U54G G122A G128C | -2.84 |
| C53G U96C U106A A119G U133A | 1.61 |
| C53U A95C C115A | 0.802 |
| C53U C76U | -0.497 |
| U55C C72G | -0.713 |
| U55C G57U U59A C89U | -2.23 |

| Variant | polymerase ribozyme fitness (log ratio) |
| --- | --- |
| U55C G93C U133A | -0.554 |
| U55A C86G U130A | -0.641 |
| C53U U78C C89U A95G C101G C114U U125A G128A | -5.82 |
| U54A C72A C73U A91C C115U | -4.35 |
| U54A C62A A95C | -2.03 |
| U54A C62U U96G | -0.523 |
| C53U G93C | -1.07 |
| C53U G93U | -0.832 |
| C53U G57U | 0.599 |
| C53U G63A G113U | -5.15 |
| C53U C94A | -1.44 |
| C53U G60U C101G | -1.27 |
| C53U U126G | -1.77 |
| C53U G61A A74U G127C | -1.43 |
| U55C A66G A90U | -4.46 |
| U54G C72G U129A | -2.34 |
| U54A C88G G135U | -1.43 |
| U54G G93U A95C C101A G120A | -2.9 |
| C53G U112G G113C | -5.93 |
| U54C U59C C94U A111G G128A U131A | -3.64 |
| U54C C73A A121U | 2.33 |
| U55C C64U | -0.472 |
| C53G U81C U106A | -4.71 |
| U55A G69A C94A | -4.1 |

| Variant | polymerase ribozyme fitness (log ratio) |
| --- | --- |
| U54G C72U U129C | -0.965 |
| U55C U87G G135U | -1.63 |
| U54C C88U C94A C101U | -0.155 |
| U54C G71U C97G C123U | -4.02 |
| U54G A121G | 1.62 |
| C53U C56G U116A G120C U133G | -1.3 |
| C53U C73G C89U U112G | -1 |
| U55G C72U C88G | -1.33 |
| U55G C56U G117A G135C | -2.53 |
| U55G C72A U106G G113U U133A | -5.76 |
| U54C A75G C79A | -0.763 |
| U55G C82A | -0.266 |
| U55C G57U A66C C123G | -0.734 |
| C53U C88U | 0.129 |
| C53G G117A | -1.45 |
| C53U A90C C104A A121G C123A | -2.12 |
| U54A C64U C72U | 0.146 |
| U55C C70U | -0.302 |
| U54G U55G C73A C102G G110U G120C | -7.7 |
| U54G C72U C97U | -0.381 |
| U55C G69C C79A | -3.59 |
| U54C U109G | -5.15 |
| U54C U87A | 0.213 |
| C53U C79G G113C | -3.6 |

| Variant | polymerase ribozyme fitness (log ratio) |
| --- | --- |
| C53U G71A C124A G128C | -1.39 |
| U55A C79A U125G U133G | -4.8 |
| U55A G117A | -1.34 |
| U54C A84G U116G | -2.35 |
| C53U G93A A103C | -5.92 |
| C53G U116A | -2.67 |
| C53G U87G C99G C101U G107U G113A | -7.29 |
| U55G C76A | -0.0105 |
| U55G A66U A83U | -3.53 |
| C53U G57U C101A U109G | -6.08 |
| C53U A74U U81C G120A | -1.15 |
| U55C G57A U106A G110U C123U | -3.04 |
| U54A C104U C114G C115U | -5.34 |
| U54A U87A | -2.57 |
| U55A C104A G113C G122U | -3.73 |
| C53U C76U G128A | -2.11 |
| C53U C72A A91C C94G C101A | -4.4 |
| U54A G61U U96C C99A | -5.82 |
| U54G G61A C86G | -5.3 |
| U55C A83C U116C | -2.32 |
| U54A G110A | -1.52 |
| U55A A74G C82G C123G | 1.26 |
| U54G C56A | -1.48 |
| U55G A90C U92G C101A | -3.67 |

| Variant | polymerase ribozyme fitness (log ratio) |
| --- | --- |
| C53U G58C U81G C88A C89U G120C | -4.46 |
| U54A G63A C73G | -6.66 |
| C53G U81G | -1.16 |
| C53U C64U A83G | -0.811 |
| C53U G58U C70U | -0.221 |
| U54A A105U | -1.84 |
| U55A A66G C101G | -2.92 |
| C53U C89U C104A C115U C124A U133G | -4.17 |
| U54A G120A | 0.0705 |
| U55A C88A | 0.08 |
| U54C C70A C82A G128U | -5.17 |
| U55C G60A C82A | -0.172 |
| C53G G110A | -1.16 |
| U54A G63U C99U G117U | -5.72 |
| U55A G69U | 0.503 |
| C53U G113A | -1.57 |
| U54A G71U C79U G93A C94U | -2.4 |
| U54G C89A U106A | -2.52 |
| U54G G113C U126C | -3.09 |
| U55G C72U | -0.317 |
| U54A G63U | -0.939 |
| C53G U112C | 0.934 |
| U55C C79A | -2.08 |
